Laboratory results published in publication PMC8153730 (Science Advances, 2021).

Key:
[1] = target: His-Sumo BRD4 (1-477aa) wild type, not methylated (UniProt O60885 1-477); assay: ELISA
[2] = target: recombinant His BRD4 (1-477aa) (UniProt O60885 1-477); assay: ELISA

B1: His E2F1 (natural protein)
chain: not shown
binding result [1]: binds

B2: recombinant glutathione S-transferase (GST) SETD6 (enzyme)
chain: MATQAKRPRVAGPVDGGDLDPVACFLSWCRRVGLELSPKVSERAGGRRTRGGARAALTSPPAQVAVSRQGTVAGYGMVARESVQAGELLFVVPRAALLSQHTCSIGGLLERERVALQSQSGWVPLLLALLHELQAPASRWRPYFALWPELGRLEHPMFWPEEERRCLLQGTGVPEAVEKDLANIRSEYQSIVLPFMEAHPDLFSLRVRSLELYHQLVALVMAYSFQEPLEEEEDEKEPNSPVMVPAADILNHLANHNANLEYSANCLRMVATQPIPKGHEIFNTYGQMANWQLIHMYGFVEPYPDNTDDTADIQMVTVREAALQGTKTEAERHLVYERWDFLCKLEMVGEEGAFVIGREEVLTEEELTTTLKVLCMPAEEFRELKDQDGGGDDKREEGSLTITNIPKLKASWRQLLQNSVLLTLQTYATDLKTDQGLLSNKEVYAKLSWREQQALQVRYGQKMILHQLLELTS
binding result [2]: binds
